Target: MD39 HIV Env stabilized SOSIP trimer (MD39 HIV Env gp140) (HIV)
Experiment: SEC-MALS; immunogens after S200 Increase size-exclusion chromatography in TBS; DAWN HELEOS II and Optilab T-rEX

## MD39 HIV Env stabilized SOSIP trimer (MD39 HIV Env gp140)
  stoichiometry N: 3

Source: publication PMC12335825
